Test results: patent US20220305006A1 (University of California, published 2022)

Experiments:
Test in all cases: cell-based or functional assay
[1] = biological target: BACE1 expressed from a transfected plasmid in 293T cells (NRG1 and PSGL1 assays)
[2] = biological target: Recombinant Human Cathepsin D (human, UniProt P07339 65-412)
[3] = biological target: BACE in CHO-7W cells (Chinese hamster ovary cells stably transfected with wildtype human APP)

Recombinant Human Cathepsin D, sequence (P07339 65-412): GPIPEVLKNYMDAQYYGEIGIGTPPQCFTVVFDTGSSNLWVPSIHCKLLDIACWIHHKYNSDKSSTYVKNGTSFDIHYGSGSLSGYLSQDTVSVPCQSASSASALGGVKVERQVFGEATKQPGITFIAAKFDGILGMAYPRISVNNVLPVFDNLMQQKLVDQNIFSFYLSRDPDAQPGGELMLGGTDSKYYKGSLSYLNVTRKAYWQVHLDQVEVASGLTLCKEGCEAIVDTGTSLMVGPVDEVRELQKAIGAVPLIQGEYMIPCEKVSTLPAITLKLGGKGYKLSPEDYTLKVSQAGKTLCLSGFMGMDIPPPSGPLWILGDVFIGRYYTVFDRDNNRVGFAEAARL

Binder: Ac-ALYPYFLPISAK-NH2 [Peptide 65007]
- NRG1 cleavage by BACE in co-transfected 293T cells (secreted alkaline phosphatase), EC50 [1]: > 10 µM
- PSGL1 cleavage by BACE in co-transfected 293T cells (secreted alkaline phosphatase), EC50 [1]: > 10 µM
- Cat D activity (fluorogenic substrate), IC50 [2]: > 5 µM
- decrease of BACE cleavage product sAPPβ from CHO-7W cells, EC50 [3]: ~10 µM
